Assay results published in IntAct's records for PubMed 25081058.

B1: Tyrosine-protein phosphatase non-receptor type 18 (Homo sapiens), Q99952-1 (parent)
chain: MSRSLDSARSFLERLEARGGREGAVLAGEFSDIQACSAAWKADGVCSTVAGSRPENVRKNRYKDVLPYDQTRVILSLLQEEGHSDYINGNFIRGVDGSLAYIATQGPLPHTLLDFWRLVWEFGVKVILMACREIENGRKRCERYWAQEQEPLQTGLFCITLIKEKWLNEDIMLRTLKVTFQKESRSVYQLQYMSWPDRGVPSSPDHMLAMVEEARRLQGSGPEPLCVHCSAGCGRTGVLCTVDYVRQLLLTQMIPPDFSLFDVVLKMRKQRPAAVQTEEQYRFLYHTVAQMFCSTLQNASPHYQNIKENCAPLYDDALFLRTPQALLAIPRPPGGVLRSISVPGSPGHAMADTYAVVQKRGAPAGAGSGTQTGTGTGTGARSAEEAPLYSKVTPRAQRPGAHAEDARGTLPGRVPADQSPAGSGAYEDVAGGAQTGGLGFNLRIGRPKGPRDPPAEWTRV

Variants of: B1
Conditions: with fbw1a_human BTRC

Variant	effect of a mutation on the interaction
MSRSLDSARSFLERLEARGGREGAVLAGEFSDIQACSAAWKADGVCSTVAGSRPENVRKNRYKDVLPYDQTRVILSLLQEEGHSDYINGNFIRGVDGSLAYIATQGPLPHTLLDFWRLVWEFGVKVILMACREIENGRKRCERYWAQEQEPLQTGLFCITLIKEKWLNEDIMLRTLKVTFQKESRSVYQLQYMSWPDRGVPSSPDHMLAMVEEARRLQGSGPEPLCVHCSAGCGRTGVLCTVDYVRQLLLTQMIPPDFSLFDVVLKMRKQRPAAVQTEEQYRFLYHTVAQMFCSTLQNASPHYQNIKENCAPLYDDALFLRTPQALLAIPRPPGGVLRSISVPGSPGHAMADTYAVVQKRGAPAGAGSGTQTGTGTGTGARSAEEAPLYSKVTPRAQRPGAHAEDARGTLPGRVPADQAPAGSGAYEDVAGGAQTGGLGFNLRIGRPKGPRDPPAEWTRV [S419A]	decreasing interaction strength
MSRSLDSARSFLERLEARGGREGAVLAGEFSDIQACSAAWKADGVCSTVAGSRPENVRKNRYKDVLPYDQTRVILSLLQEEGHSDYINGNFIRGVDGSLAYIATQGPLPHTLLDFWRLVWEFGVKVILMACREIENGRKRCERYWAQEQEPLQTGLFCITLIKEKWLNEDIMLRTLKVTFQKESRSVYQLQYMSWPDRGVPSSPDHMLAMVEEARRLQGSGPEPLCVHCSAGCGRTGVLCTVDYVRQLLLTQMIPPDFSLFDVVLKMRKQRPAAVQTEEQYRFLYHTVAQMFCSTLQNASPHYQNIKENCAPLYDDALFLRTPQALLAIPRPPGGVLRSISVPGSPGHAMADTYAVVQKRGAPAGAGSGTQTGTGTGTGARSAEEAPLYSKVTPRAQRPGAHAEDARGTLPGRVPADQSPAGAGAYEDVAGGAQTGGLGFNLRIGRPKGPRDPPAEWTRV [S423A]	disrupting interaction strength
